In PMC5701133 (Scientific Reports, 2017):

Biological target: T1, BRD4 ET domain (residues M610-R676) (human, UniProt O60885 610-676, uniformly 15N-labelled for the NMR titrations)
T1 construct: human BRD4, extraterminal (ET) domain, residues 610-676; also called extraterminal (ET) domain of BRD4; source: E. coli BL21-CodonPlus (pRIL), purified (HiTrap IMAC, Superdex)
Test: ITC; MicroCal auto-ITC200, 20 °C, PBS pH 7.4 with 0.5 mM dithiothreitol; protein (0.5 mM) in the cell, peptide (7.5 mM) in the syringe; one set of sites model
Conditions: both partners purified

- Kd: 675 ± 66 µM
B1: JMJD6 peptide W85A (peptide, UniProt Q6NYC1 84-96, looked up)
peptide: KATLERLKRKYRN
notes: JMJD6 residues 84-96 with W85A; also called W85A peptide
